Test results as given in paper PMC10786891, “Massively parallel profiling of RNA-targeting CRISPR-Cas13d”.
Numbering of substitutions follows the chain as printed. Numbers in names are those of the source.

T1: EsCas13d, nuclease-dead (Eubacterium siraeum, UniProt B0MS50, R295A;H300A;R849A;H854A)
T1 sequence: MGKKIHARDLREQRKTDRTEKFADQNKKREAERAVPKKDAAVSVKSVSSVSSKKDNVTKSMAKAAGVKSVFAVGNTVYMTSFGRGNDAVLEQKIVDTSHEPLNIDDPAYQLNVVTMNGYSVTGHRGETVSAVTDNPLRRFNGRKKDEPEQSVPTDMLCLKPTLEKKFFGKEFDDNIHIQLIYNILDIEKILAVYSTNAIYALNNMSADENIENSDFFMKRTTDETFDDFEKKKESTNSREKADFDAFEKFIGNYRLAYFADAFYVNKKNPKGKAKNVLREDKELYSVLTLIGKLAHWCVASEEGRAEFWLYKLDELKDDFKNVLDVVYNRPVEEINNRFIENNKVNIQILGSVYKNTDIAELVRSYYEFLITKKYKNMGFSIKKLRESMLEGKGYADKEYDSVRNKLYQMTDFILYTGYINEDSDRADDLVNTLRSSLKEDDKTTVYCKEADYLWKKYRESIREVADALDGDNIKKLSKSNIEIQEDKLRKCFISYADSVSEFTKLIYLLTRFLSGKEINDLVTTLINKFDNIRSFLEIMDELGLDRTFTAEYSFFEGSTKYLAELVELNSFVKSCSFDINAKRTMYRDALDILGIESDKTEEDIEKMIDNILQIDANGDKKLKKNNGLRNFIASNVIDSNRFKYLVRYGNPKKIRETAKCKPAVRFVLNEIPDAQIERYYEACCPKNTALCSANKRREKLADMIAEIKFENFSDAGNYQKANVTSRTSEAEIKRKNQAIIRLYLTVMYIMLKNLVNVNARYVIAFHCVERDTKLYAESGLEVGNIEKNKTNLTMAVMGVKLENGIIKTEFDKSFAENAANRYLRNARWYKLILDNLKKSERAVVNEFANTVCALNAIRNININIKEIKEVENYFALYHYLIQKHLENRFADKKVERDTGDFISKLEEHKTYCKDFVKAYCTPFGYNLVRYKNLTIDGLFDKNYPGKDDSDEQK

B1: target 1 MT 5'PFS GCA 3'PFS CGA (mixed)
RNA 1: CACCCGUGCAAAAAUGCAGGGGUCUAAAACUGAGCGGAUAACCUCUCUAUGG
RNA 2: GGGAAUGGAUCCACAUCUACGAAUUCGCACCAUAGAGAGGUUAUCCGCUCACGAAGAUCGGAAGAGCACACGU
B2: target 1 MT 5'PFS CAG 3'PFS AUC (mixed)
RNA 1: B1 RNA 1
RNA 2: B1 RNA 2 with G27C, C28A, A29G, C52A, G53U, A54C
B3: target 1 MT 5'PFS CAG 3'PFS AUA (mixed)
RNA 1: B1 RNA 1
RNA 2: B1 RNA 2 with G27C, C28A, A29G, C52A, G53U
B4: target 1 MT 5'PFS GGC 3'PFS ACC (mixed)
RNA 1: B1 RNA 1
RNA 2: B1 RNA 2 with C28G, A29C, C52A, G53C, A54C
B5: target 1 MT 5'PFS AAA 3'PFS AUG (mixed)
RNA 1: B1 RNA 1
RNA 2: B1 RNA 2 with G27A, C28A, C52A, G53U, A54G
B6: target 1 MT 5'PFS AAA 3'PFS AUU (mixed)
RNA 1: B1 RNA 1
RNA 2: B1 RNA 2 with G27A, C28A, C52A, G53U, A54U
B7: target 1 MT 5'PFS AAC 3'PFS CUA (mixed)
RNA 1: B1 RNA 1
RNA 2: B1 RNA 2 with G27A, C28A, A29C, G53U
B8: target 1 MT 5'PFS ACA 3'PFS AAC (mixed)
RNA 1: B1 RNA 1
RNA 2: B1 RNA 2 with G27A, C52A, G53A, A54C
B9: target 1 MT 5'PFS ACG 3'PFS AGC (mixed)
RNA 1: B1 RNA 1
RNA 2: B1 RNA 2 with G27A, A29G, C52A, A54C
B10: target 1 MT 5'PFS ACA 3'PFS AAA (mixed)
RNA 1: B1 RNA 1
RNA 2: B1 RNA 2 with G27A, C52A, G53A
B11: target 1 insG 3' of 10,insU 3' of 4 (mixed)
RNA 1: B1 RNA 1
RNA 2: GGGAAUGGAUCCACAUCUACGAAUUCGUACCAUAGAGAGGUUGAUCCGCUUCACCGAGAUCGGAAGAGCACACGU
B12: target 1 MT 5'PFS GGC 3'PFS ACU (mixed)
RNA 1: B1 RNA 1
RNA 2: B1 RNA 2 with C28G, A29C, C52A, G53C, A54U
B13: target 1 MT 5'PFS AUA 3'PFS UUG (mixed)
RNA 1: B1 RNA 1
RNA 2: B1 RNA 2 with G27A, C28U, C52U, G53U, A54G
B14: target 1 MT 5'PFS GCC 3'PFS UCU (mixed)
RNA 1: B1 RNA 1
RNA 2: B1 RNA 2 with A29C, C52U, G53C, A54U
B15: target 1 MT 5'PFS AUA 3'PFS UUC (mixed)
RNA 1: B1 RNA 1
RNA 2: B1 RNA 2 with G27A, C28U, C52U, G53U, A54C
B16: target 1 MT 5'PFS UGC 3'PFS UAC (mixed)
RNA 1: B1 RNA 1
RNA 2: B1 RNA 2 with G27U, C28G, A29C, C52U, G53A, A54C
B17: target 1 MT 5'PFS GCC 3'PFS UCG (mixed)
RNA 1: B1 RNA 1
RNA 2: B1 RNA 2 with A29C, C52U, G53C, A54G
B18: target 1 MT 5'PFS GCC 3'PFS UCA (mixed)
RNA 1: B1 RNA 1
RNA 2: B1 RNA 2 with A29C, C52U, G53C
B19: target 1 MT 5'PFS GCC 3'PFS UCC (mixed)
RNA 1: B1 RNA 1
RNA 2: B1 RNA 2 with A29C, C52U, G53C, A54C
B20: target 1 MT 5'PFS GGA 3'PFS UUG (mixed)
RNA 1: B1 RNA 1
RNA 2: B1 RNA 2 with C28G, C52U, G53U, A54G
B21: target 1 MT 5'PFS GGA 3'PFS UUC (mixed)
RNA 1: B1 RNA 1
RNA 2: B1 RNA 2 with C28G, C52U, G53U, A54C
B22: target 1 insU 3' of 6,insA 3' of 4 (mixed)
RNA 1: B1 RNA 1
RNA 2: B11 RNA 2 with G43A, A44U, U45C, C47U, U50A
B23: target 1 MT 5'PFS GGA 3'PFS UUA (mixed)
RNA 1: B1 RNA 1
RNA 2: B1 RNA 2 with C28G, C52U, G53U
B24: target 1 MT 5'PFS GGA 3'PFS UUU (mixed)
RNA 1: B1 RNA 1
RNA 2: B1 RNA 2 with C28G, C52U, G53U, A54U
B25: target 1 MT 5'PFS UGU 3'PFS ACU (mixed)
RNA 1: B1 RNA 1
RNA 2: B1 RNA 2 with G27U, C28G, A29U, C52A, G53C, A54U
B26: target 1 MT 5'PFS GAA 3'PFS AGU (mixed)
RNA 1: B1 RNA 1
RNA 2: B1 RNA 2 with C28A, C52A, A54U
B27: target 1 MT 5'PFS UGU 3'PFS ACG (mixed)
RNA 1: B1 RNA 1
RNA 2: B1 RNA 2 with G27U, C28G, A29U, C52A, G53C, A54G
B28: target 1 MT 5'PFS UGU 3'PFS ACA (mixed)
RNA 1: B1 RNA 1
RNA 2: B1 RNA 2 with G27U, C28G, A29U, C52A, G53C
B29: target 1 MT 5'PFS UCC 3'PFS CAG (mixed)
RNA 1: B1 RNA 1
RNA 2: B1 RNA 2 with G27U, A29C, G53A, A54G
B30: target 1 MT 5'PFS UCC 3'PFS CAA (mixed)
RNA 1: B1 RNA 1
RNA 2: B1 RNA 2 with G27U, A29C, G53A
B31: target 1 MT 5'PFS UCC 3'PFS CAU (mixed)
RNA 1: B1 RNA 1
RNA 2: B1 RNA 2 with G27U, A29C, G53A, A54U
B32: target 1 MT 5'PFS UCG 3'PFS CUU (mixed)
RNA 1: B1 RNA 1
RNA 2: B1 RNA 2 with G27U, A29G, G53U, A54U
B33: target 1 U3C,C6U (mixed)
RNA 1: B1 RNA 1
RNA 2: B1 RNA 2 with C28U, C46U, U49C, G53C, A54G
B34: target 1 MT 5'PFS AUU 3'PFS AAG (mixed)
RNA 1: B1 RNA 1
RNA 2: B1 RNA 2 with G27A, C28U, A29U, C52A, G53A, A54G
B35: target 1 MT 5'PFS CUU 3'PFS CGC (mixed)
RNA 1: B1 RNA 1
RNA 2: B1 RNA 2 with G27C, C28U, A29U, A54C
B36: target 1 MT 5'PFS UAG 3'PFS UGA (mixed)
RNA 1: B1 RNA 1
RNA 2: B1 RNA 2 with G27U, C28A, A29G, C52U
B37: target 1 MT 5'PFS CAC 3'PFS AAC (mixed)
RNA 1: B1 RNA 1
RNA 2: B1 RNA 2 with G27C, C28A, A29C, C52A, G53A, A54C
B38: target 1 MT 5'PFS CAC 3'PFS AAG (mixed)
RNA 1: B1 RNA 1
RNA 2: B1 RNA 2 with G27C, C28A, A29C, C52A, G53A, A54G
B39: target 1 MT 5'PFS ACA 3'PFS UAG (mixed)
RNA 1: B1 RNA 1
RNA 2: B1 RNA 2 with G27A, C52U, G53A, A54G
B40: target 1 MT 5'PFS CUA 3'PFS CUC (mixed)
RNA 1: B1 RNA 1
RNA 2: B1 RNA 2 with G27C, C28U, G53U, A54C

These binders were tested against T1, EsCas13d, nuclease-dead (assay: crRNA (strand 1, pre-loaded); Mg2+; 40 mM Tris-HCl pH 7.5, 150 mM NaCl, 6 mM MgCl2, 1 mM DTT, 0.1% Tween-20, 0.2 mg/ml BSA; 25 C; 10 min per concentration, then washed). Conditions: tags: His6-TwinStrep-SUMO cleaved; N-terminal SNAP kept (SNAP-Surface 488); label: 3' end held by stalled T7 RNA polymerase.
B1 showed a Kd of 0.041 ± 0.011 µM.
B2 showed a Kd of about 0.0175 µM.
With B3 the Kd was 0.029 ± 0.0135 µM.
B4 showed a Kd of 0.0243 ± 0.00525 µM.
Work on B5 yielded a Kd of 0.0285 ± 0.008 µM.
Binder B6 has a Kd of 0.028 ± 0.0095 µM.
B7 was tested, and the Kd was 0.039 ± 0.0195 µM.
B8 showed a Kd of 0.0153 ± 0.00485 µM.
For B9, the Kd was about 0.031 µM.
B10 was tested, and the Kd was about 0.049 µM.
B11 was tested, and the Kd was 0.032 ± 0.007 µM.
B12 gave a Kd of 0.0144 ± 0.00155 µM.
In the case of B13, the Kd is reported as 0.0109 ± 0.00245 µM.
Binder B14 has a Kd of 0.0123 ± 0.00285 µM.
Binder B15 has a Kd of 0.0165 ± 0.0055 µM.
B16 gave a Kd of 0.032 ± 0.0105 µM.
Work on B17 yielded a Kd of 0.0153 ± 0.003 µM.
Binder B18 has a Kd of 0.0275 ± 0.01 µM.
B19 was tested, and the Kd was 0.0126 ± 0.00475 µM.
Binder B20 has a Kd of 0.0089 ± 0.0008 µM.
In the case of B21, the Kd is reported as 0.0134 ± 0.0025 µM.
In the case of B22, the Kd is reported as 0.0079 ± 0.0006 µM.
For B23, the Kd was 0.0142 ± 0.0031 µM.
B24 was tested, and the Kd was 0.0135 ± 0.00415 µM.
Work on B25 yielded a Kd of 0.0345 ± 0.0135 µM.
Binder B26 has a Kd of 0.043 ± 0.0115 µM.
With B27 the Kd was about 0.08 µM.
Work on B28 yielded a Kd of 0.071 ± 0.018 µM.
B29 was tested, and the Kd was about 0.06 µM.
Binder B30 has a Kd of about 0.018 µM.
Work on B31 yielded a Kd of 0.013 ± 0.0055 µM.
B32 was tested, and the Kd was 0.0245 ± 0.0065 µM.
For B33, the Kd was 0.0144 ± 0.0019 µM.
For B34, the Kd was 0.095 ± 0.04 µM.
B35 showed a Kd of 0.018 ± 0.006 µM.
B36 was tested, and the Kd was 0.0345 ± 0.008 µM.
In the case of B37, the Kd is reported as about 0.0345 µM.
B38 was tested, and the Kd was 0.042 ± 0.017 µM.
For B39, the Kd was 0.0112 ± 0.00495 µM.
With B40 the Kd was 0.00715 ± 0.00305 µM.
